Reference: the domain aggregation screens of Martell et al. (2025)

assay: soluble fraction after stress (log2 fold change); higher = more stays soluble; pooled small domains, quantitative proteomics; conditions: stress: pH 4
Procedure, shortened: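 After pH 4 stress, pooled custom libraries of small protein domains were quantified with high-throughput quantitative proteomics. Aggregation propensity is taken from the fold change in each domain's soluble amount following the acid stress. The scale is log2, where higher values mean more stayed soluble.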

Compared with “HMGEGIRIDSTAVVQVGEKMYAYLGGDGFSKEFWTNLPASGELAVTLKFEPIPMDAESLDFYEMPA”, “HMGEILYSGVLKGGDGPEATKLALEKFLGEANTQVAGRIGVQPETQVIWLSREAVDSAASTLSQHKGNMYV” is lower in “soluble fraction (log2)” value: 0.154 for the first, -0.0574 for the second.

Going from “HMGELDFYEEMRDDYLTGKIWNVGEIVEAKGMIGEIVRKGTNYISFVTDDNKVHKAWLHEIKL” to “HMGELRAPLPGVIVSIPVKEGDEVKAGQAILIIEAMKMESEISSPIDAKVAKIVVKERVLVQEGDILIILE”, the “soluble fraction (log2)” value rises from -1.37 to -0.876.

Compared with “HMGEMTDFETLRDMYLTGQIWNIDDLIEANGVEGRIVRRGTNYIAFNDRDGKVHKAWLHEVTINE”, “HMGENTIFSGVLGEGRLDSALAHALPQFSRARIQGLIAEDAVLIAGKATNDAASKKFAGQSFELSVPAPRP” is higher in “soluble fraction (log2)” value: -1.39 for the first, 0.0263 for the second.

Compared with “HMGEPQAWNELIGNLLRQWEARQTGWTPARKREALDRVLGAADPAALYTRLQGLLKSWTQAMTDADA”, “HMGEQETILKGDVNRDGVVDVNDVTHLQIHISNDDKNPLIDVTNKAWFDAADMYGDGKLDILDATALQIYI” is higher in “soluble fraction (log2)” value: -0.956 for the first, -0.145 for the second.

“HMGERVDGVVKFFNGQKGFGFIQREDGGPDAFVHISAVERAGMAGLDEGQRVSFELELDRRGKQAAINLTP” and “HMGESYGPVRRGETLWSIAEKVKPAGVSTQKELAAIYAANPQAFIRGDINLLKAGAELRLPSPEAL” are within 0.2 log units of each other in “soluble fraction (log2)” value: -0.192 for the first, -0.0107 for the second.

“HMGESYQIKDGELLVDIAQRVKPAGMTLRQTINALVAANPRAFRNGNPDLMYRGATLTIPDGDTLRRLAH” and “HMGEVQALIPGLVSKLFVVEGESVKIGQKLIILEAMKMENEIASPINGTIKKIYIKSGDKIDKGSIIMEIT” are within 0.2 log units of each other in “soluble fraction (log2)” value: 0.0238 for the first, -0.0106 for the second.

“HMGEVVSAPMPGTILSIKVSQGQTVKRGQVLLILEAMKMENEIVAPRDGVVVQISTTQGASVETGAPLVVL” and “HMGEVYPSDIVEKMKQANLHILEGTLYPLLTRLKNAGLLNYRWVESVTGPPRKYFVMTEEGKAAF” are within 0.2 log units of each other in “soluble fraction (log2)” value: -0.118 for the first, 0.0276 for the second.

“HMGEWHQMLRSWGETELKNGRQNILDEAVPAFERAMIETALAHTSGRKKDAALLLGWGRNTLTRKLQEHSI” and “HMGEYGVLWYLLTKKEAVSAGELKEKLHVVPGRMTDILTALEKKGLIIRQKNKTDKRVVDVVLTKEGEKEA” are within 0.2 log units of each other in “soluble fraction (log2)” value: -0.349 for the first, -0.511 for the second.

First: HMGFAEFWLAYPKKVGKGEAERKWKTLKPDAGAVLSAVKRQSASEQWRKDGGRYIPNPATWLHQRRWE
Second: HMGFALLIAIERTGNTTYFVKLTLIKKGSDSDVLKDSFSVSQGDLVGTATYDSVIANRIREKTAAMWQKAT
The “soluble fraction (log2)” value of the first is higher: 0.243 for the first, -0.73 for the second.

First: HMGFDTSMNKYTIDDLLKLLELGSNPSQAEIVNKITNFNTIFVDNSGVIQFLNNIQDKLLDNFK
Second: HMGFDTVVEKVLGLITSRPMTSRDIQMTLGRSREHTSRLMNRLYKEGLVDRNTSSKPFSYIITEKGREKI
The “soluble fraction (log2)” value of the first is lower: -0.95 for the first, 0.424 for the second.

First: HMGFPAPFDGKAVAELRRRLGLTRRGLAEELSVSPSTVDKWEQGDVALRSPALTILKILWHQGLKALPP
Second: HMGFSDDEHNALADADLKKALEVTTNKSETQYNIAKLIYSYIISLGDKKPYGDWSYDKALSIIHDA
The “soluble fraction (log2)” value of the first is higher: ≥ 0.43 for the first, -0.00141 for the second.

“HMGGAVQIAEQIAARIKDGALRPGELLPPVRQLAAELEVNPNTVASAYARLRDAGLVATRGRAGTVVLEPP” and “HMGGAYATVKLSSSSSQLNVRASASTASRVVARLSHGFRVEVLGVSGDWVKIRALGVEGYVARAYLALEGE” are within 0.2 log units of each other in “soluble fraction (log2)” value: -0.246 for the first, -0.17 for the second.

Compared with “HMGGEAEVLQSIDEGREVEVRSVAADGSAEVIYRGARWRARAAVGSLAAGRWTIGRVDGTELVLEK”, “HMGGEEKALLFGDVDIREAGEITQRLEQAEIPYELRGDGSSIFVPRSRVMEARMMISADGLL” is lower in “soluble fraction (log2)” value: 0.215 for the first, -0.901 for the second.

First: HMGGEKLPAPVAGTLLRYSVAEGARVSEGQTVIILESMKMELEINTPKAGVIHFLAAVGAQVAEGDTLAEI
Second: HMGGGTPEERLATLAAIAERQEMLLERLGPNNPLVSLGQYSRTLSRMVQLAGFKDASQYFNELPLDFQMPE
The “soluble fraction (log2)” value of the first is higher: -0.171 for the first, -0.437 for the second.

Going from “HMGGHLAYGFSRRFGLLIDEQQGEPVIIARPDYSPVHYAEARRIVGQPAALRVVDEQAFNQLLQSQQESGA” to “HMGGLENNLKQARNRVGLTQSELARQAGISRQAYSSLESGAANPSTEVALRLAQALSERVESLFYLPE”, the “soluble fraction (log2)” value rises from -0.383 to -0.169.

First: HMGGNVYAYRLTASVKSGEQIPANKIEKVKMLSSDLPTNYVPDTVNVTAYKSKLDLQAGTILSTSLLYEN
Second: HMGGPTARQMEVLSLIAQGLPNKRIADELGIAERTVKLHITALLDSLGARNRTHLLVVARERGM
The “soluble fraction (log2)” value of the first is higher: 0.247 for the first, -0.608 for the second.

“HMGGQKTREAIFDLIMTNSKITSAQIAEILGIHRSGVARHLKKLQEEGLIKREGPDNGGQWIVIK” and “HMGGQYQVRPGETLNQIAARVRPSNMSLSETQKAIIQANPDIFKNGNPNLIFAGDILRIPTGNQI” are within 0.2 log units of each other in “soluble fraction (log2)” value: -0.298 for the first, -0.224 for the second.

Compared with “HMGGTTLIAKQATVTGDIQFSSNLDIEGRVVGAISVEPGKEAMLHVVEGGSVEGEIRVPSAVINGKVTGDI”, “HMGGVEWLTHPIGPRDSLQVLARAGLEARPTSDGDYEIYGQERWPQRDQARLMGWLRRFGQWVWQALYDK” is higher in “soluble fraction (log2)” value: -0.775 for the first, -0.386 for the second.

Compared with “HMGHEALSSKLDEIQGVGKEKRSLLLDHFKTFERIKNASMEELEAVPSLGKNTAKAVFRFFHS”, “HMGHLTWTVTGIGHERRARTVAEQMSSVFGVLEARASSAGTVYLEFEREKIDEGGLEASLKRMGVTRVV” is lower in “soluble fraction (log2)” value: 0.236 for the first, -2.05 for the second.

Going from “HMGIAFDYDAGRFDQVPPNLVEKWQQAYPAVDVLSELRRMEAWASANPVNRKSNWQRFIVNWLTRAQDRAG” to “HMGIAKYRQVTEWIQNRIATGELNRGDQIESENDISRTFGISRQTVRHALGLLEQQGILTRIQGRGTFVRD”, the “soluble fraction (log2)” value rises from -0.16 to 0.309.

Compared with “HMGIFDIIQEINRQGVTVLLIEQNANMALKIADVGYVLETGRISLTGSGRELLANEAVKKAYL”, “HMGIKYTNQRVEILNFLKDNLSHPTVDDVYEGVKKKLTRISKATVYQNLKFLASKGLIQEVNIKGVSRFEP” is lower in “soluble fraction (log2)” value: ≥ 0.43 for the first, 0.22 for the second.

“HMGIRQGKVTSTFVNVRSGASTANAKVGELHKGDVVSLIEKVANFWRIGPGQFVSADYIQVLAS” and “HMGIRYQLADDVTDEQITAMTGKKAKIAAAIKAAGSAVSKMNVAGEMGYDKQNPINKDFMELVDAGIIVPS” are within 0.2 log units of each other in “soluble fraction (log2)” value: -0.0122 for the first, -0.121 for the second.

Going from “HMGISEKVINIIETYTMIARKKYPSVKSLAEHFNVSERTVHRYLEIIKMIDVVDYDREKKGYFFPYGDR” to “HMGISSESIKTFIREIVENEDPKAPLSDQTMVELLAERGIDISRRTVAKYRDEMNLPSSSKRKR”, the “soluble fraction (log2)” value rises from -0.462 to -0.168.

“HMGKAMIDWEREQSILRILLRQKALTTEQAREVYQDGMREDLSALEMGVQRGYFTHEQLREATGGE” and “HMGKASNEVYEVISSKIRTGEWAPGYKLPSEPTLAEEFGVSRATVREALQELISRGRIKREQGRGTYVLH” are within 0.2 log units of each other in “soluble fraction (log2)” value: 0.00817 for the first, -0.118 for the second.

Compared with “HMGKAVTLEEARAIIQAKVPGASPDMIQIWEEHGDGRGRYEGELSYNNMKYEFEMDPKTGIIFDWNA”, “HMGKEDISQINKLYQNQILDYETYIDTLNSFNIDTKSKDFKNLLDLFIKKSISFETFNKGIINIHNKS” is lower in “soluble fraction (log2)” value: -0.189 for the first, -1.01 for the second.

“HMGKFMVQVGAFSRINGAEITRTKYDNLGTHKAIIKNLDGMNRVFLTGFLSEDEARDFIASSNLKGAFIIR” and “HMGKGVDKIMKMADDYSYGKIAGKTVDVMTAKLFQAAYNKAPQKAKDKVDKMNEKQLYIFMMNLWKRF” are within 0.2 log units of each other in “soluble fraction (log2)” value: -0.0731 for the first, 0.0998 for the second.

Going from “HMGKIILLFSDDDGVFDTALYRVRNYDGHRFAQSLGNAEMKWRHSEDEYFDFVLTSLREDGYDIEEIE” to “HMGKIINMSKVKQVLRLHTQGVSNRRIALDLGLYKGTVNSYIRKIKDHGYDIAEVLKLDDPVLESKLFA”, the “soluble fraction (log2)” value rises from -0.686 to 0.268.

Going from “HMGKKGPELNDNEKIIFNIISKENSMNLDDLKNRTELSNKQWDKAIKGLRSHELVNIEKIDDQLLIHL” to “HMGKKQLVVDLQSIITDVPAALKSYGLEIGQDGKSLIYTYDTKGERTGITTLLNDLQKAGLQMTDMKTQQ”, the “soluble fraction (log2)” value rises from -0.598 to -0.0755.

“HMGKPTPASQVATRWLAGDLPETLPVAGPAPSFETLARSVSTDFHPRAVLQELLRLGVAEEADGRVRLLK” and “HMGKQPLYEQLVDLLRDRIENDMETGELLPSERKLAHHFGLSRTTVRLAMDRLETLGLITRVHGKDTFVAE” are within 0.2 log units of each other in “soluble fraction (log2)” value: -0.0325 for the first, -0.12 for the second.

Going from “HMGKREKTKVANRQAILVAARAVFAELGYEAATVRDIIRGTDLASGTFYNYFKSKEEVFDALADDGA” to “HMGKSETALELIKRGHRLIADDAVEITRIGSTLSGTAPELIRNYLEVRGVGVIDVEKLFGVGAVQDSTQI”, the “soluble fraction (log2)” value rises from -0.79 to -0.0577.

Compared with “HMGKSPLDALSAREKEVLTYITRGVSINDIAAVLYLSPKTVSTHKTNLMQKLGIENNADLILFGVNHGLND”, “HMGLIAPMPGQIRSVAVSVGDVVKKGQTLLTMEAMKMEIRIQALKDGRVTALHAAQGQTVEGEQILIEVE” is higher in “soluble fraction (log2)” value: -0.897 for the first, -0.652 for the second.

First: HMGLLEMPSERERQVLVLIAEGLSNKEIAARLYLTEGTVKNHAHSLYAKLNVTTRTLAIARARQLGI
Second: HMGLLLSQLDKDYQRYIDLADSTFRDNQLAVSRGWYNRALGVKAAEKYPKDQIAEIEKKIAERM
The “soluble fraction (log2)” value of the first is lower: -0.731 for the first, -0.108 for the second.

First: HMGLNEGLNEGQQKVIQHIQENEGIKVKEISLKLNMPIDTVDRHIRVLKNLNLIERRGSRKTGGYFISN
Second: HMGLNELQVKLNEAMQRLSLKHRTVVVMHDIEGIPHDEIAKIVGVSVGTIRSRLFYARRQLQADLGEY
The “soluble fraction (log2)” value of the first is higher: 0.111 for the first, -0.896 for the second.

Going from “HMGLNNVSDILRLDFNSFKKKFDKLPSGYKNSVVEQAALMIKSGELDSIKIKDYIEKSMGIELDI” to “HMGLQDLFLNSLRKSKTPVTMFLVKGVKLQGVVTWFDNFSVLLRRDGMSQLVYKHSISTIMP”, the “soluble fraction (log2)” value rises from -0.0393 to 0.22.

Going from “HMGLSARIAQRIHGLRTAQRMSLEALAARSGVSRSMISLIERNEASPTAVVLEKIATGLNVVLAALFDTP” to “HMGLSNYEFNSISQTVKEKLEQGPLTLKALVDETAHLFAEDKVVSVVQWLIDQRDLAYDDHGLLQWKG”, the “soluble fraction (log2)” value falls from -0.324 to -0.871.

“HMGLTLREKMGHVLEMLKGREFLPFVSLFTVEEGRIGVVVTFMSILELVKEGILDLVQTESFGPIHVKAR” and “HMGMAETTARILQLLGLLQSRRGWSGQELAERLGVTTRSVRRDVERLRELGYPVHASAGHGGGYQLGA” are within 0.2 log units of each other in “soluble fraction (log2)” value: 0.0455 for the first, -0.106 for the second.

First: HMGMGDALRILFNQAMLIEREQYLQAGAYERNENPVNYANGFKAKTLNTRVGALEVAVPQTRDSAFYPSFL
Second: HMGMLATFVTSAKVPDDVVYAITKEVFENLDEFKKLHPALEGLTRETMLEGLTAPIHPGALKYYKEAGLM
The “soluble fraction (log2)” value of the first is higher: -0.163 for the first, -1.32 for the second.

For “HMGMSQQKQSSTVRIIMQDISDANEGLMKMSQIIDAALAEGISETIVRNAISNLHRGGTIYESQTGTYQW”, the “soluble fraction (log2)” value was -0.392.
